{"source": "paper doi:10.1101/2020.06.08.118984", "about": "(bioRxiv, 2020)", "proteins": {"B1": {"name": "mouse TBPL2 core domain (TBPL2^C) (domain or fragment)", "chain": "SGIVPQLQNVVSTANLACKLDLRKIALNAKNTEYNPKRFAAVIMRIREPRTTALIFSSGKVVCTGAKSEEESRLAARKYARVVQKLGFPVRFFNFKIQNMVGSCDVKFPIRLEILALTHRQFSSSYEPELFPGLIYKMVKPQVVLLIFASGKVVLTGAKERSEIYEAFENMYPILESFKK"}}, "target": "the molecule itself", "experiment": "crystal structure"}
{"protein": "B1", "values": [{"measurement": "stoichiometry N", "result": 2}]}
